Data on four substances can be found in article PMC9197780.

Targets include ADI-56046 (human); P2B-2F6 (human); B38 (human); P17 (human); C105 (human); CB6 (human).
Holding throughout (assay): SPR
A general note: Surface plasmon resonance follows binding to a sensor surface in real time, without labels.

pKd: −log10 of the molar value. Bounds are passed on as bounds.

“SARS-CoV-2 Omicron BA.1 RBD protein with His-tag, spike residues 319-541 (from UniProt P0DTC2 319-541) (domain or fragment)” had a negative logarithm of the Kd (pKd) with ADI-56046 (human) of 5.64.
On the same count and under the same terms, the result for “SARS-CoV-2 Omicron BA.1.1 RBD protein with His-tag, spike residues 319-541 (from UniProt P0DTC2 319-541) (domain or fragment)” reads 5.82.
“SARS-CoV-2 Omicron BA.2 RBD protein with His-tag, spike residues 319-541 (from UniProt P0DTC2 319-541) (domain or fragment)”: in the test with P2B-2F6 (human), the pKd was 5.29.
Consider “SARS-CoV-2 Omicron BA.3 RBD protein with His-tag, spike residues 319-541 (from UniProt P0DTC2 319-541) (domain or fragment)”, for which the pKd was under 6.30 in the test with B38 (human); 4.74 with ADI-56046 (human); 5.46 with P17 (human); under 6.30 with C105 (human); under 6.30 with CB6 (human).

The term pKd denotes the negative decadic logarithm of the Kd, by convention in mol/L.
